Values quoted from earlier work, collected in patent JP2018508186A, “Il−17a結合ポリペプチド” (アフィボディ アクティエボラーグ, priority 2015, dated 2016).

Tests used:
IL-17A [1] = molecular target: T1, IL-17A (Homo sapiens, UniProt Q16552); settings: from WO2006/013107, WO2012/125680, WO2007/070750; read-out: KD for IL-17A, reported
IL-17A [2] = molecular target: T1, IL-17A; settings: from WO2006/013107 and WO2012/125680; read-out: IC50, hIL-6 production neutralising activity, reported

T1 sequence (Q16552 24-155): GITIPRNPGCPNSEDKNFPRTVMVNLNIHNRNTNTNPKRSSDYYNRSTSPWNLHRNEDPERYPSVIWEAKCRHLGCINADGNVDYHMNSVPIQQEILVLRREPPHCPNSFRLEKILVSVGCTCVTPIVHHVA

| Kd (IL-17A [1]) [nM] | IC50 (IL-17A [2]) [nM] | Substance |
| --- | --- | --- |
| 0.122 | 2.1 ± 0.1 | セクキヌマブ: anti-IL-17A monoclonal antibody |
| 0.002 | – | イキセキズマブ: anti-IL-17A monoclonal antibody |
